According to article PMC2868174:

Target: ERK2 (UniProt P63086)
Experiment: steady-state kinetics, forward and reverse reaction
Settings: reference: unphosphorylated Ets; sites T38

other: Km: same; reference 18.0 ± 2.0
Substance: Ets-1 (Ets; residues 1–138) 1-138 (from UniProt P27577) p-Ets (ERK2-phosphorylated, Mono-Q purified)
